Source: IntAct's records for PubMed 22885598

B1: Autophagy-related protein 13 (Saccharomyces cerevisiae), Q06628 (parent)
chain: MVAEEDIEKQVLQLIDSFFLKTTLLICSTESSRYQSSTENIFLFDDTWFEDHSELVSELPEIISKWSHYDGRKELPPLVVETYLDLRQLNSSHLVRLKDHEGHLWNVCKGTKKQEIVMERWLIELDNSSPTFKSYSEDETDVNELSKQLVLLFRYLLTLIQLLPTTELYQLLIKSYNGPQNEGSSNPITSTGPLVSIRTCVLDGSKPILSKGRIGLSKPIINTYSNALNESNLPAHLDQKKITPVWTKFGLLRVSVSYRRDWKFEINNTNDELFSARHASVSHNSQGPQNQPEQEGQSDQDIGKRQPQFQQQQQPQQQQQQQQQQQRQHQVQTQQQRQIPDRRSLSLSPCTRANSFEPQSWQKKVYPISRPVQPFKVGSIGSQSASRNPSNSSFFNQPPVHRPSMSSNYGPQMNIEGTSVGSTSKYSSSFGNIRRHSSVKTTENAEKVSKAVKSPLQPQESQEDLMDFVKLLEEKPDLTIKKTSGNNPPNINISDSLIRYQNLKPSNDLLSEDLSVSLSMDPNHTYHRGRSDSHSPLPSISPSMHYGSLNSRMSQGANASHLIARGGGNSSTSALNSRRNSLDKSSNKQGMSGLPPIFGGESTSYHHDNKIQKYNQLGVEEDDDDENDRLLNQMGNSATKFKSSISPRSIDSISSSFIKSRIPIRQPYHYSQPTTAPFQAQAKFHKPANKLIDNGNRSNSNNNNHNGNDAVGVMHNDEDDQDDDLVFFMSDMNLSKEG
partner: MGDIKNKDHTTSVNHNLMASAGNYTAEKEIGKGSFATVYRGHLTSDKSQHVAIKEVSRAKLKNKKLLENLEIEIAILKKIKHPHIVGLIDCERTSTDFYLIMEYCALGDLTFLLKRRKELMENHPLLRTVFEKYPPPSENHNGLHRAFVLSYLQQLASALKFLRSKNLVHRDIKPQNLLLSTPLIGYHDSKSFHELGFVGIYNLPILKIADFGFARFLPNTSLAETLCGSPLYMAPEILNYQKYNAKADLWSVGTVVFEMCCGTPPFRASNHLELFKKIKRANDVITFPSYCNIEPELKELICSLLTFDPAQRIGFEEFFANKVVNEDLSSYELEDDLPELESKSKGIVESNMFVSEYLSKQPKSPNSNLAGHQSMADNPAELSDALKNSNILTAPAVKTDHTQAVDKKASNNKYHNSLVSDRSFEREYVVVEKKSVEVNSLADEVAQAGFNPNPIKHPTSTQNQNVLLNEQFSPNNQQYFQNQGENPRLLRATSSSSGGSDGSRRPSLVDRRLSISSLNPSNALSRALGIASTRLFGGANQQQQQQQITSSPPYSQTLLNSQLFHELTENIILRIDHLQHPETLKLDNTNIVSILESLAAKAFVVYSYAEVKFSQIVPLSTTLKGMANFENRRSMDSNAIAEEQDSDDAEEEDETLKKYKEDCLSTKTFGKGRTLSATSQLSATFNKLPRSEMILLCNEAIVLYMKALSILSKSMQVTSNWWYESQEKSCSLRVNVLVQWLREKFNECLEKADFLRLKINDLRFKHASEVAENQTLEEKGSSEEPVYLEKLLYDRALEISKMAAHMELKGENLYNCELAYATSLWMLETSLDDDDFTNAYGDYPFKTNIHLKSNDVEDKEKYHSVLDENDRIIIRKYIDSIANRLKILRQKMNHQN

Variants of: B1
Details: with atg1_yeast ATG1, P53104

effect of a mutation on the interaction | Variant
disrupting interaction | F468A
disrupting interaction | V469A

Variants of: B1
Details: with atg1_yeast ATG1, P53104
Remark: another data set of the same source

effect of a mutation on the interaction | Variant
decreasing interaction | F468A
